This is an account of results in patent US20220073563A1 (ZHEJIANG DOER BIOLOGICS, published 2022).

Assay [1] has as its target T1, VEGF (UniProt P15692-4 27-191, limits assumed).
T1 construct: In the BLI assay the VEGF was biotin-labeled (Sulfo-NHS biotin, molar ratio 2:1) and loaded on an SA probe
The experiment in a line: BLI (Octet-QK), biotin-labeled VEGF on SA probe; repeat 2. The text has this: (§1) The binding affinity of the fusion protein is detected using BLI(Bio-layer inteferometry, ForteBio). […] Biotin not involved in labeling is removed by dialysis. […] The buffer used in the experiment is PBS (containing 0.1% Tween-20). […] Based on the program settings, the fusion protein is bound, and then dissociated in PBST solution, to obtain the experimental curve. According to the result analysis software of Octet-QK, local full is used to fit the curve of the experimental results, to calculate kon, kdis and Kd.
(In general: BLI is a label-free optical method that tracks binding on a fibre tip over time.)

Assay [2] deals with T1, VEGF. The experiment in a line: BLI (Octet-QK), biotin-labeled VEGF on SA probe; average value of 3 repeats.
Excerpt: as §1

Assay [3] has as its target T1, VEGF. The experiment in a line: BLI (Octet-QK), biotin-labeled VEGF on SA probe; repeat 3.
Excerpt: as §1

Assay [4] has as its target T1, VEGF. The experiment in a line: BLI (Octet-QK), biotin-labeled VEGF on SA probe; repeat 1.
Excerpt: as §1

The target of assay [5] is T1, VEGF. The experiment in a line: VEGF receptor competitive inhibition ELISA: sample in 3-fold dilutions premixed with 1 µg/mL VEGF, added to coated VEGF Receptor 2/KDR, bound VEGF detected with anti-VEGF antibody. (An ELISA detects its analyte on a solid surface through an enzyme-linked reagent.)
Experimental: Blocking the ELISA plate with 1% BSA/TBS and placing at 37° C. for 2 h. […] The KDR-coated ELISA plate is washed twice and pat-dried. Then, the gradiently diluted mixture samples are successively transferred to the ELISA plate and placed at 37° C. for 1 h, then the plate is washed 5 times. […] The plate is placed at 37° C. for 1 h and washed 5 times. […] The plate is placed at 37° C. for 1 h and washed for 6 times. After the reaction, adding the color developing solution, and developing the color at 37° C. for 15 min. Adding the stop buffer to terminate the color reaction. Reading the OD450 value on the microplate reader.

T1 sequence (P15692 other isoform, or with tags, fused parts or gaps limits assumed): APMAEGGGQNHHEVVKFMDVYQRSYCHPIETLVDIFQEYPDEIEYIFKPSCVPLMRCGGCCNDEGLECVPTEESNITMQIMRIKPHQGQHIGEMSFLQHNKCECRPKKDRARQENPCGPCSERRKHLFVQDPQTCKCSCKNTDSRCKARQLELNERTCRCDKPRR

B1: ankyrin repeat protein binding to VEGF (designed binder)
chain: GSDLDKKLLEAARAGQDDEVRILMANGADVNARDSTGWTPLHLAAPWGHPEIVEVLLKNGADVNAADFQGWTPLHLAAAVGHLEIVEVLLKYGADVNAQDKFGKTAFDISIDNGNEDLAEILQKAA
notes: Unfused ARVEGF used as comparator; also called ARVEGF
B1: the Kd (commonly the concentration at which binding is half-saturated) with VEGF [1] was 0.47 nM; in the assay with VEGF [2], 0.54 nM; in the assay with VEGF [3] it was 0.59 nM; in the assay with VEGF [4] it was 0.55 nM. The IC50 (commonly the midpoint of a concentration-inhibition curve) in the assay with VEGF [5] turned out to be 0.64 nM.
